Data on four molecules can be found in US9988424 (DUKE UNIVERSITY, dated 2018).

In general, EC50 refers to the concentration needed to bring the measured effect to its halfway point. In general, EC50 (read off the curve) refers to the concentration giving half of the maximal effect.

The target in one assay is C.CAP206 gp140CF.12 (HIV-1). Kind of assay: ELISA.
In assay [1] the target is AE.A244 V1V2 Tags (HIV-1). Briefly: ELISA. On the technique in general: ELISA stands for enzyme-linked immunosorbent assay.
In assay [2] the target is T1, gp70 B.CaseA2 V1/V2/V169K (HIV-1 V1V2 on murine leukemia virus gp70).
T1 chain: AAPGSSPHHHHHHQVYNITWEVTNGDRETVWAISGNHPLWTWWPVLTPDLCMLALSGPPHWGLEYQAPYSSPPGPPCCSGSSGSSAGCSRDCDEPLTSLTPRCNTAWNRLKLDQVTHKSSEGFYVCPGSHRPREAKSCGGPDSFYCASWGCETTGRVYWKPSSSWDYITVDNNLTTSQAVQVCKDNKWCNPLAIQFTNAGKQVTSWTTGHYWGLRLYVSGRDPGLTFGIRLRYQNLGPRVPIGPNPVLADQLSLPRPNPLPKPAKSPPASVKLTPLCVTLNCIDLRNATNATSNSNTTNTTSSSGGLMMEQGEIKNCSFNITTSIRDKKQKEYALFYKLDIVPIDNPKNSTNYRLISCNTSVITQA
Kind of assay: ELISA.

The target of assay [3] is T2, gp70 B.CaseA2 V1/V2/V169K/E172V/E173H (HIV-1 V1V2 on murine leukemia virus gp70).
T2 construct: also called gp70 B.CaseA2 V1/V2 Mut3
T2 chain: T1 chain with E332V, Y333H
Briefly: ELISA.

Assay [4] concerns the target AE.A244 V1V2 Tags (HIV-1). Briefly: ELISA. The source holds these as a separate data set.
The target in assay [5] is T3, AE.A244 gp120 delta 11 (HIV-1).
T3 construct: also called E.A244gp120Δ11; AE.A244 Δ11 gp120
Kind of assay: ELISA.

Assay [6] deals with C.1086 V1V2 Tags (HIV-1). Kind of assay: ELISA.
The target in assay [7] is T4, gp70 C.1086 V1/V2 (HIV-1 V1V2 on murine leukemia virus gp70).
T4 construct: also called C.gp70 1086C V1V2; C.1086gp70V1V2
T4 chain: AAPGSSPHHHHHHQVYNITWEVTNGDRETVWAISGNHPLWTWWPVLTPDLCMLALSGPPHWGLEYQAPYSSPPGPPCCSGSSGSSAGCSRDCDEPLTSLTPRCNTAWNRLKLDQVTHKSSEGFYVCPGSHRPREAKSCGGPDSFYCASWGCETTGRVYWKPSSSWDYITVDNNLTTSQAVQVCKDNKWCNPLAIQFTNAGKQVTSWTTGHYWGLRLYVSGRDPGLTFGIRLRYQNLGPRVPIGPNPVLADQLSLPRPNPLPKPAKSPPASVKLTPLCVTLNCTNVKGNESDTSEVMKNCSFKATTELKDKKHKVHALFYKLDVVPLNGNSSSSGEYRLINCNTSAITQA
Kind of assay: ELISA.

The target in assay [8] is T3, AE.A244 gp120 delta 11. Kind of assay: ELISA. The source holds these as a separate data set.
Assay [9] addresses C.1086 V1V2 Tags (HIV-1). Briefly: ELISA. The source holds these as a separate data set.
For assay [10], the target named is T4, gp70 C.1086 V1/V2. Kind of assay: ELISA.
For a further assay, the target named is Env of AE.92TH023 virus (HIV-1). Kind of assay: cell-based or functional assay.
The target in a further assay is Env of AE.CM244 virus (HIV-1). Kind of assay: cell-based or functional assay.
The target of assay [11] is Env of 92TH023 K169Q virus (HIV-1). Briefly: cell-based or functional assay.
In assay [12] the target is Env of TH023.6.I181L virus (HIV-1). Kind of assay: cell-based or functional assay.
The next assay concerns the target Env of 703357.c02 virus (HIV-1). Kind of assay: cell-based or functional assay.
The target of assay [13] is Env of 703357.2.Q169K virus (HIV-1). Kind of assay: cell-based or functional assay.
Assay [14] has as its target Env of 703357.2.Q169KR170Q virus (HIV-1). Briefly: cell-based or functional assay.
Assay [15] addresses Env of 703357.2.I181L virus (HIV-1). Kind of assay: cell-based or functional assay.
The target in assay [16] is Env of 703357.2.Q169KI181L virus (HIV-1). Briefly: cell-based or functional assay.
In assay [17] the target is Env of 703357.2.Q169KR170QI181L virus (HIV-1). Briefly: cell-based or functional assay.
For another assay, the target named is Env of 427299.c12 virus (HIV-1). Briefly: cell-based or functional assay.
In assay [18] the target is Env of 427299.c12.Q169K virus (HIV-1). Briefly: cell-based or functional assay.
The target in assay [19] is Env of 427299.c12.H81L virus (HIV-1). Kind of assay: cell-based or functional assay.
The target in assay [20] is Env of 427299.c12.KL.Q169K/I181L virus (HIV-1). Kind of assay: cell-based or functional assay.
Assay [21] concerns the target Env of CM244NW.4.K169Q virus (HIV-1). Briefly: cell-based or functional assay.
For assay [22], the target named is Env of CM244NW.6.I181L virus (HIV-1). Briefly: cell-based or functional assay.
For assay [23], the target named is T5, AE.A244 V1/V2 Tags N156QN160Q (HIV-1).
T5 chain: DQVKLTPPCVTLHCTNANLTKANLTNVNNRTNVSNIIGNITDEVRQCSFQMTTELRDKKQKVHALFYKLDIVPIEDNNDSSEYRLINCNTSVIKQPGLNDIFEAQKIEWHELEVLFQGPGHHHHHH
Kind of assay: ELISA; markers as in the legend printed on D00157.

Substitutions are numbered along the chain they refer to. Read-outs that look alike come from different tables or passages of the source.

B1: PG16 (antibody, V domains shown)
VH: QEQLVESGGGVVQPGGSLRLSCLASGFTFHKYGMHWVRQAPGKGLEWVALISDDGMRKYHSDSMWGRVTISRDNSKNTLYLQFSSLKVEDTAMFFCAREAGGPIWHDDVKYYDFNDGYYNYHYMDVWGKGTTVTVSS
VL: QSALTQPASVSGSPGQTITISCNGTSSDVGGFDSVSWYQQSPGKAPKVMVFDVSHRPSGISNRFSGSKSGNTASLTISGLHIEDEGDYFCSSLTDRSHRIFGGGTKVTVL
notes: also called mAb PG16; bnAb PG16
Regarding B1, the EC50 amounted to 16000 pM in the assay with C.CAP206 gp140CF.12, 3700 pM with AE.A244 V1V2 Tags [1] and 3700 pM with AE.A244 V1V2 Tags [4]. Also, the binding result in [2] and in assay [3] was “no binding” each time.

B2: 697D (antibody, V domains shown)
VH: QVQLVQSGAEVKKPGSSVKVSCKASGGNFNTYTISWVRQAPGQGLEWMGRIIPIFGIVNPAQKFPGRVTINVDKSTNTAYMELSSLRSEDTAVYYCATSGVGLHFGYFDYWGQGTQVTVSS
VL: QSVLTQPPSVSGAPGQRVTISCTGSSSNIGAHYDVHWYQQLPGTAPKLLIYGNSNRPSGVPDRFSGSKSGTSASLAITGLQAEDEADYYCQSYDSSLSGYVFGTGTKVTVL
notes: also called mAb 697D; V2 conformational mAb 697D
As to B2, the EC50 with C.CAP206 gp140CF.12 came to 100 pM; in the assay with AE.A244 V1V2 Tags [1], 100 pM; with AE.A244 gp120 delta 11 [5] it was 230 pM; with C.1086 V1V2 Tags [6] it was 230 pM; with gp70 C.1086 V1/V2 [7], 67 pM; in [2], 0.14 µg/mL. For the same molecule, the half-maximal effective concentration (EC50) is 0.04 µg/mL in assay [3]; 100 pM with AE.A244 V1V2 Tags [4]; 230 pM in the assay with AE.A244 gp120 delta 11 [8]; 230 pM with C.1086 V1V2 Tags [9]; 67 pM with gp70 C.1086 V1/V2 [10].

B3: 697D reverted unmutated ancestor antibody (antibody, V domains shown)
VH: QVQLVQSGAEVKKPGSSVKVSCKASGGTFSSYTISWVRQAPGQGLEWMGRIIPILGIANYAQKFQGRVTITADKSTSTAYMELSSLRSEDTAVYYCATSGVGLHFGYFDYWGQGTLVTVSS
VL: B2 VL with H32G
notes: also called 697D RUA
On to B3, for which the EC50 with AE.A244 gp120 delta 11 [5] and with AE.A244 gp120 delta 11 [8] was greater than 667000 pM in each case.

B4: CH59 reverted unmutated ancestor antibody (antibody, V domains shown)
VH: EVQLVESGGGLVQPGRSLRLSCAASGFTFDDYAMHWVRQAPGKGLEWVSGISWNSGSIGYADSVKGRFTISRDNAKNSLYLQMNSLRAEDTALYYCAKDSPRGELPFDYWGQGTLVTVSS
VL: SYELTQPPSVSVSPGQTARITCSGDALPKKYAYWYQQKSGQAPVLVIYEDSKRPSGIPERFSGSSSGTMATLTISGAQVEDEADYYCYSTDSSGNHRVFGGGTKLTVL
notes: also called CH59 RUA; CH59_RUA
Consider B4, for which the EC50 with AE.A244 V1V2 Tags [1] came to 130 pM; with AE.A244 gp120 delta 11 [5] it was 15500 pM; with C.1086 V1V2 Tags [6], 50100 pM; with gp70 C.1086 V1/V2 [7], 11300 pM; with AE.A244 V1V2 Tags [4], 130 pM; in the assay with AE.A244 gp120 delta 11 [8] it was 15500 pM. In addition, the half-maximal effective concentration (EC50) with C.1086 V1V2 Tags [9] worked out at 50100 pM; in the assay with gp70 C.1086 V1/V2 [10], 11300 pM. For the same molecule, the “ID50 assayed in TZM-bl cells, TH023.6” value in the assay with Env of AE.92TH023 virus was greater than 50 µg/mL. Also, the “ID50 assayed in TZM-bl cells, CM244.ec1” value with Env of AE.CM244 virus was greater than 50 µg/mL. In addition, in assay [11], the “ID50 assayed in TZM-bl cells, TH023.6.K169Q” value was greater than 50 µg/mL. Moreover, the “ID50 assayed in TZM-bl cells, TH023.6.I181L” value in assay [12] is greater than 50 µg/mL. In the assay with Env of 703357.c02 virus, the “ID50 assayed in TZM-bl cells, 703357.c02” value was greater than 50 µg/mL. Further, the “ID50 assayed in TZM-bl cells, 703357.2.Q169K” value in assay [13] is greater than 50 µg/mL. Further, the “ID50 assayed in TZM-bl cells, 703357.2.Q169KR170Q” value in assay [14] was greater than 50 µg/mL. Also, the “ID50 assayed in TZM-bl cells, 703357.2.I181L” value in assay [15] was greater than 50 µg/mL. The “ID50 assayed in TZM-bl cells, 703357.2.Q169KI181L” value in [16] was greater than 50 µg/mL. In addition, the “ID50 assayed in TZM-bl cells, 703357.2.Q169KR170QI181L” value in [17] was greater than 50 µg/mL. For the same molecule, the “ID50 assayed in TZM-bl cells, 427299.c12” value in the assay with Env of 427299.c12 virus was greater than 50 µg/mL. Moreover, the “ID50 assayed in TZM-bl cells, 427299.c12.Q169K” value in [18] was greater than 50 µg/mL. The “ID50 assayed in TZM-bl cells, 427299.c12.H81L” value in assay [19] was greater than 50 µg/mL. Further, the “ID50 assayed in TZM-bl cells, 427299.c12.KL.Q169K/I181L” value in assay [20] was greater than 50 µg/mL. Moreover, the “ID50 assayed in TZM-bl cells, CM244NW.4.K169Q” value in assay [21] is greater than 50 µg/mL. In assay [22], the “ID50 assayed in TZM-bl cells, CM244NW.6.I181L” value was greater than 50 µg/mL. Moreover, in assay [23], the 50% effective concentration (EC50 (read off the curve)) is roughly 0.4 µg/mL.
